Results reported in paper PMC10397247.

T1: P6-AA-1HGe-D
T1 chain: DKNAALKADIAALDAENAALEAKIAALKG

T2: P6-AA-1HGe-R
T2 chain: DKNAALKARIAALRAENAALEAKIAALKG

T3: P6-AA-1HGe-M
T3 chain: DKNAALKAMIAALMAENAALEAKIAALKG

T4: P6-AA-1HGe-T
T4 chain: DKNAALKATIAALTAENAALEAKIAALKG

T5: P6-AA-1HGe-A
T5 chain: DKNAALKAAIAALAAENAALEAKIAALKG

T6: P6-AA-1HGe-W
T6 chain: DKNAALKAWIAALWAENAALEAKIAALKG

T7: P6-AA-1HGe-Q
T7 chain: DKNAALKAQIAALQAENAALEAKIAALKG

T8: P6-AA-1HGe-S
T8 chain: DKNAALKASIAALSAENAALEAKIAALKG

T9: P6-AA-1HGe-H
T9 chain: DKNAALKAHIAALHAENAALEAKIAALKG


Biological target: T1, P6-AA-1HGe-D
Assay: two-hybrid library CCmax;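 also: natural log of median RNA to DNA barcode read ratio; higher means stronger binding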
Settings: not given

| interaction score | Binder |
| --- | --- |
| 1.95 | DENAALEATIAALTAKNAALKAEIAALEG [P5-AA-1HGe-T] |

Same assay, conditions: mean of both orientations

| interaction score | Binder |
| --- | --- |
| 0.0672 | DENAALEASIAALSAKNAALKAEIAALEG [P5-AA-1HGe-S] |
| 0.67 | DENAALEAWIAALWAKNAALKAEIAALEG [P5-AA-1HGe-W] |
| 1.37 | DENAALEAYIAALYAKNAALKAEIAALEG [P5-AA-1HGe-Y] |

Continued, binder first:

| Binder | interaction score |
| --- | --- |
| DENAALEARIAALRAKNAALKAEIAALEG [P5-AA-1HGe-R] | 1.74 |
| DENAALEAQIAALQAKNAALKAEIAALEG [P5-AA-1HGe-Q] | 1.58 |
| DENAALEAMIAALMAKNAALKAEIAALEG [P5-AA-1HGe-M] | 1.82 |
| DENAALEADIAALDAKNAALKAEIAALEG [P5-AA-1HGe-D] | -1.28 |
| DENAALEAAIAALAAKNAALKAEIAALEG [P5-AA-1HGe-A] | 1.06 |

Biological target: T2, P6-AA-1HGe-R
Assay: two-hybrid library CCmax;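 also: natural log of median RNA to DNA barcode read ratio; higher means stronger binding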
Settings: mean of both orientations

| interaction score | Binder |
| --- | --- |
| 2.02 | DENAALEATIAALTAKNAALKAEIAALEG [P5-AA-1HGe-T] |
| 2.01 | DENAALEASIAALSAKNAALKAEIAALEG [P5-AA-1HGe-S] |
| 1.42 | DENAALEAWIAALWAKNAALKAEIAALEG [P5-AA-1HGe-W] |
| 1.82 | DENAALEAYIAALYAKNAALKAEIAALEG [P5-AA-1HGe-Y] |

The next lines start with the binder.

| Binder | interaction score |
| --- | --- |
| DENAALEARIAALRAKNAALKAEIAALEG [P5-AA-1HGe-R] | 1.45 |
| DENAALEAQIAALQAKNAALKAEIAALEG [P5-AA-1HGe-Q] | 2.05 |
| DENAALEAMIAALMAKNAALKAEIAALEG [P5-AA-1HGe-M] | 1.93 |
| DENAALEADIAALDAKNAALKAEIAALEG [P5-AA-1HGe-D] | 1.62 |
| DENAALEAAIAALAAKNAALKAEIAALEG [P5-AA-1HGe-A] | 2.03 |

Biological target: T3, P6-AA-1HGe-M
Assay: two-hybrid library CCmax;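 also: natural log of median RNA to DNA barcode read ratio; higher means stronger binding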
Settings: mean of both orientations

| interaction score | Binder |
| --- | --- |
| 2.18 | DENAALEATIAALTAKNAALKAEIAALEG [P5-AA-1HGe-T] |
| 1.86 | DENAALEASIAALSAKNAALKAEIAALEG [P5-AA-1HGe-S] |
| 1.92 | DENAALEAWIAALWAKNAALKAEIAALEG [P5-AA-1HGe-W] |
| 1.95 | DENAALEAYIAALYAKNAALKAEIAALEG [P5-AA-1HGe-Y] |

The next lines start with the binder.

| Binder | interaction score |
| --- | --- |
| DENAALEARIAALRAKNAALKAEIAALEG [P5-AA-1HGe-R] | 1.53 |
| DENAALEAQIAALQAKNAALKAEIAALEG [P5-AA-1HGe-Q] | 2.3 |
| DENAALEAMIAALMAKNAALKAEIAALEG [P5-AA-1HGe-M] | 2.35 |
| DENAALEADIAALDAKNAALKAEIAALEG [P5-AA-1HGe-D] | 0.758 |
| DENAALEAAIAALAAKNAALKAEIAALEG [P5-AA-1HGe-A] | 2.21 |

Biological target: T4, P6-AA-1HGe-T
Assay: two-hybrid library CCmax;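 also: natural log of median RNA to DNA barcode read ratio; higher means stronger binding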
Settings: mean of both orientations

| interaction score | Binder |
| --- | --- |
| 2.05 | DENAALEATIAALTAKNAALKAEIAALEG [P5-AA-1HGe-T] |
| 1.76 | DENAALEASIAALSAKNAALKAEIAALEG [P5-AA-1HGe-S] |
| 2.11 | DENAALEAWIAALWAKNAALKAEIAALEG [P5-AA-1HGe-W] |
| 2.24 | DENAALEAYIAALYAKNAALKAEIAALEG [P5-AA-1HGe-Y] |

Continued, binder first:

| Binder | interaction score |
| --- | --- |
| DENAALEARIAALRAKNAALKAEIAALEG [P5-AA-1HGe-R] | 1.66 |
| DENAALEAQIAALQAKNAALKAEIAALEG [P5-AA-1HGe-Q] | 2.32 |
| DENAALEAMIAALMAKNAALKAEIAALEG [P5-AA-1HGe-M] | 2.3 |
| DENAALEADIAALDAKNAALKAEIAALEG [P5-AA-1HGe-D] | 1.14 |
| DENAALEAAIAALAAKNAALKAEIAALEG [P5-AA-1HGe-A] | 2.02 |

Biological target: T5, P6-AA-1HGe-A
Assay: two-hybrid library CCmax;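 also: natural log of median RNA to DNA barcode read ratio; higher means stronger binding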
Settings: mean of both orientations

| interaction score | Binder |
| --- | --- |
| 2.2 | DENAALEATIAALTAKNAALKAEIAALEG [P5-AA-1HGe-T] |
| 1.91 | DENAALEASIAALSAKNAALKAEIAALEG [P5-AA-1HGe-S] |
| 1.97 | DENAALEAWIAALWAKNAALKAEIAALEG [P5-AA-1HGe-W] |
| 1.95 | DENAALEAYIAALYAKNAALKAEIAALEG [P5-AA-1HGe-Y] |

Continued, binder first:

| Binder | interaction score |
| --- | --- |
| DENAALEARIAALRAKNAALKAEIAALEG [P5-AA-1HGe-R] | 2.25 |
| DENAALEAQIAALQAKNAALKAEIAALEG [P5-AA-1HGe-Q] | 2.25 |
| DENAALEAMIAALMAKNAALKAEIAALEG [P5-AA-1HGe-M] | 2.5 |
| DENAALEADIAALDAKNAALKAEIAALEG [P5-AA-1HGe-D] | 0.812 |
| DENAALEAAIAALAAKNAALKAEIAALEG [P5-AA-1HGe-A] | 2.12 |

Biological target: T6, P6-AA-1HGe-W
Assay: two-hybrid library CCmax;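 also: natural log of median RNA to DNA barcode read ratio; higher means stronger binding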
Settings: mean of both orientations

| interaction score | Binder |
| --- | --- |
| 1.71 | DENAALEATIAALTAKNAALKAEIAALEG [P5-AA-1HGe-T] |
| 0.993 | DENAALEASIAALSAKNAALKAEIAALEG [P5-AA-1HGe-S] |
| 0.892 | DENAALEAWIAALWAKNAALKAEIAALEG [P5-AA-1HGe-W] |
| 1.32 | DENAALEAYIAALYAKNAALKAEIAALEG [P5-AA-1HGe-Y] |

Continued, binder first:

| Binder | interaction score |
| --- | --- |
| DENAALEARIAALRAKNAALKAEIAALEG [P5-AA-1HGe-R] | 1.25 |
| DENAALEAQIAALQAKNAALKAEIAALEG [P5-AA-1HGe-Q] | 1.97 |
| DENAALEAMIAALMAKNAALKAEIAALEG [P5-AA-1HGe-M] | 2.11 |
| DENAALEADIAALDAKNAALKAEIAALEG [P5-AA-1HGe-D] | -0.238 |
| DENAALEAAIAALAAKNAALKAEIAALEG [P5-AA-1HGe-A] | 1.57 |

Biological target: T7, P6-AA-1HGe-Q
Assay: two-hybrid library CCmax
Settings: mean of both orientations

| interaction score | Binder |
| --- | --- |
| 2.32 | DENAALEATIAALTAKNAALKAEIAALEG [P5-AA-1HGe-T] |
| 2.1 | DENAALEASIAALSAKNAALKAEIAALEG [P5-AA-1HGe-S] |
| 2.17 | DENAALEAWIAALWAKNAALKAEIAALEG [P5-AA-1HGe-W] |
| 2.22 | DENAALEAYIAALYAKNAALKAEIAALEG [P5-AA-1HGe-Y] |

Continued, binder first:

| Binder | interaction score |
| --- | --- |
| DENAALEARIAALRAKNAALKAEIAALEG [P5-AA-1HGe-R] | 1.9 |
| DENAALEAQIAALQAKNAALKAEIAALEG [P5-AA-1HGe-Q] | 2.07 |
| DENAALEAMIAALMAKNAALKAEIAALEG [P5-AA-1HGe-M] | 2.27 |
| DENAALEADIAALDAKNAALKAEIAALEG [P5-AA-1HGe-D] | 1.12 |
| DENAALEAAIAALAAKNAALKAEIAALEG [P5-AA-1HGe-A] | 2.31 |

Biological target: T8, P6-AA-1HGe-S
Assay: two-hybrid library CCmax
Settings: mean of both orientations

| interaction score | Binder |
| --- | --- |
| 1.91 | DENAALEATIAALTAKNAALKAEIAALEG [P5-AA-1HGe-T] |
| 1.13 | DENAALEASIAALSAKNAALKAEIAALEG [P5-AA-1HGe-S] |
| 1.46 | DENAALEAWIAALWAKNAALKAEIAALEG [P5-AA-1HGe-W] |
| 1.94 | DENAALEAYIAALYAKNAALKAEIAALEG [P5-AA-1HGe-Y] |

More lines, now with the values behind:

| Binder | interaction score |
| --- | --- |
| DENAALEARIAALRAKNAALKAEIAALEG [P5-AA-1HGe-R] | 1.48 |
| DENAALEAQIAALQAKNAALKAEIAALEG [P5-AA-1HGe-Q] | 2.03 |
| DENAALEAMIAALMAKNAALKAEIAALEG [P5-AA-1HGe-M] | 1.92 |
| DENAALEADIAALDAKNAALKAEIAALEG [P5-AA-1HGe-D] | -0.145 |
| DENAALEAAIAALAAKNAALKAEIAALEG [P5-AA-1HGe-A] | 1.63 |

Biological target: T9, P6-AA-1HGe-H
Assay: two-hybrid library CCmax
Settings: mean of both orientations

| interaction score | Binder |
| --- | --- |
| 2.03 | DENAALEATIAALTAKNAALKAEIAALEG [P5-AA-1HGe-T] |
| 1.75 | DENAALEASIAALSAKNAALKAEIAALEG [P5-AA-1HGe-S] |
| 1.34 | DENAALEAWIAALWAKNAALKAEIAALEG [P5-AA-1HGe-W] |
| 1.95 | DENAALEAYIAALYAKNAALKAEIAALEG [P5-AA-1HGe-Y] |

The next lines start with the binder.

| Binder | interaction score |
| --- | --- |
| DENAALEARIAALRAKNAALKAEIAALEG [P5-AA-1HGe-R] | 1.64 |
| DENAALEAQIAALQAKNAALKAEIAALEG [P5-AA-1HGe-Q] | 2.05 |
| DENAALEAMIAALMAKNAALKAEIAALEG [P5-AA-1HGe-M] | 2.03 |
| DENAALEADIAALDAKNAALKAEIAALEG [P5-AA-1HGe-D] | 0.69 |
| DENAALEAAIAALAAKNAALKAEIAALEG [P5-AA-1HGe-A] | 1.73 |
